Data as given in US20190016794A1 (Boehringer Ingelheim, published 2019).
Several values for one entry are separate records, joined by “and”; a condition that tells them apart may be missing. Identical values can stand only once. Each block holds one binder with its values, some of them ahead of it.

What was measured:
recombinant human IL23 [1] = target: T1, recombinant human IL23 (human, UniProt P29460 23-328); assay: cell-based or functional assay
T1 sequence 1: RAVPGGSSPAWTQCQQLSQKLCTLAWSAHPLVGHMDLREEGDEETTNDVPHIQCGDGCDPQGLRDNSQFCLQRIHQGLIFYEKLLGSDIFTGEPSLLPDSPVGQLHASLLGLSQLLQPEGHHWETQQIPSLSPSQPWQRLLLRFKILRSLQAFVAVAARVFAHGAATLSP
T1 sequence 2: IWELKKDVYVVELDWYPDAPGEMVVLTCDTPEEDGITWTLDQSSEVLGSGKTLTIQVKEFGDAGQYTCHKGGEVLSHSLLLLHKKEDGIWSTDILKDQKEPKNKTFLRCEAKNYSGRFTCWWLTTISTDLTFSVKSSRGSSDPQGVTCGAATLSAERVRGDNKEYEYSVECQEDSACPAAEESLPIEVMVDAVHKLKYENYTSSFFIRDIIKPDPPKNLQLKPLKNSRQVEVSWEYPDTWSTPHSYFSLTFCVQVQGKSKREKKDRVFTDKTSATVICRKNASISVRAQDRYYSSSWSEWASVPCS

recombinant human IL23 [2] = target: T1, recombinant human IL23; assay: cell-based or functional assay; remark: listed apart in the source
membrane bound TNF-alpha [3] = target: T2, membrane bound TNF-alpha; assay: flow cytometry, mTNF-transfected CHO cells (geomean)
T2 construct: whole, on cells; also called mTNF; membrane expressed TNF-alpha
Procedure: (§1) All reagents were prepared in flow cytometry staining buffer (BioLegend). Membrane expressed TNF-alpha transfected cell lines (Jurkat and CHO) and parental cell lines were harvested from tissue culture vessels, washed, counted and resuspended to 1×10̂6 cells/ml in flow cytometry staining buffer. One hundred microliters of the cell suspension was added to 96 well microtiter plates and placed on ice. Titrations of test compounds were prepared and 50 uL was added to the cells. After sixty minute incubation on ice, the cell+test compounds were washed and 50 uL of a secondary antibody (Jackson ImmunoResearch) was added. The samples were incubated in the dark, at 4 C, for 60 minutes, followed by washes. After a final wash the cells were resuspended in 60 uL of fixative (BD Bioscience). Median fluorescence was determined for each sample in a flow cytometer and plotted versus the concentration of the test sample. EC₅₀ values were calculated using the 4 Parameter Logistic enabled by the Excel add-in XLfit (Activity Base software, ID Business Solutions, Ltd.).

cynomolgus TNF-alpha = cynomolgus TNF-alpha (cynomolgus, UniProt P79337 77-233, limits assumed); assay: cell-based or functional assay
membrane bound TNF-alpha [4] = target: T2, membrane bound TNF-alpha; assay: flow cytometry, mTNF-transfected Jurkat cells (geomean)
Procedure: as §1

recombinant human IL23 [5] = target: T1, recombinant human IL23; assay: cell-based or functional assay; remark: listed apart in the source
recombinant human IL23 [6] = target: T1, recombinant human IL23; assay: cell-based or functional assay; remark: listed apart in the source
recombinant human IL23 [7] = target: T1, recombinant human IL23; assay: cell-based or functional assay; remark: listed apart in the source
[8] = target: T3, recombinant cynomolgus IL23 (cynomolgus); assay: cell-based or functional assay
T3 chain 1: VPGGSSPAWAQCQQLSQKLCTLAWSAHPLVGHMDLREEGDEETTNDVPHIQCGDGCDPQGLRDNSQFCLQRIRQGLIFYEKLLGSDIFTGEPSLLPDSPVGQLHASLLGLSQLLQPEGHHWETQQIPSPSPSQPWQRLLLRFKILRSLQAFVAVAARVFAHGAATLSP
T3 chain 2: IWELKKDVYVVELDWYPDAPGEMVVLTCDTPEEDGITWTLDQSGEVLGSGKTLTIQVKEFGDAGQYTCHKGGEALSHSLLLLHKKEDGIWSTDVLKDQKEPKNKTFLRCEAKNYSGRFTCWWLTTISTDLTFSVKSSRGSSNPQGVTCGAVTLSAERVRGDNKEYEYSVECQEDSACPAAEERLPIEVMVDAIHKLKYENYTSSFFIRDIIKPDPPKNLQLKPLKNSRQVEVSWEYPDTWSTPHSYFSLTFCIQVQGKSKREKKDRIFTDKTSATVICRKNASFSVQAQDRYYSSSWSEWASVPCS

recombinant human IL23 [9] = target: T1, recombinant human IL23; assay: cell-based or functional assay; remark: listed apart in the source

cynomolgus TNF-alpha, sequence (P79337 77-233 limits assumed): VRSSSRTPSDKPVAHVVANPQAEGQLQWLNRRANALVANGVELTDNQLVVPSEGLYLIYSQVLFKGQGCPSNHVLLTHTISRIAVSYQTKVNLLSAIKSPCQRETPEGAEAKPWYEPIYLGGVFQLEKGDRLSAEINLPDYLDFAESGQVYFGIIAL
T2 sequence (P01375 whole entry): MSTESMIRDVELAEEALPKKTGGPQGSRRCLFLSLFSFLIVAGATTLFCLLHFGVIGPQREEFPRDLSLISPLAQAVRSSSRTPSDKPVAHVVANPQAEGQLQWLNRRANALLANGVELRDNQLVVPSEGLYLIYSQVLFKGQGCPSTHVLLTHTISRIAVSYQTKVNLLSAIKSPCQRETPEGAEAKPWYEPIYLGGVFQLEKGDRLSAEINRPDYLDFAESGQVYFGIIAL

First test IC50, IL-23-dependent STAT3 activation (luciferase) (recombinant human IL23 [1]): 0.187 nM | GEOMEAN IC50, IL-23-dependent STAT3 activation (luciferase) (recombinant human IL23 [1]): 0.203 nM | GEOMEAN IC90, IL-23-dependent STAT3 activation (luciferase) (recombinant human IL23 [1]): 0.831 nM | IC50, IL-23-dependent STAT3 activation (DB-STAT3Luc10 luciferase) (recombinant human IL23 [2]): 0.22 nM | IC90, IL-23-dependent STAT3 activation (DB-STAT3Luc10 luciferase) (recombinant human IL23 [2]): 1.15 nM
B1: Compound G (bispecific antibody)
chain 1: EIVLTQSPATLSLSPGERATLSCRASQSVYSYLAWYQQKPGQAPRLLIYDASNRATGIPARFSGSGSGTDFTLTISSLEPEDFAVYYCQQRSNWPPFTFGPGTKVDIKGGGSGGGGQVQLVQSGAEVKKPGSSVKVSCKASGYTFTDQTIHWMRQAPGQGLEWIGYIYPRDDSPKYNENFKGKVTITADKSTSTAYMELSSLRSEDTAVYYCAIPDRSGYAWFIYWGQGTLVTVSSLGGGSGASTKGPSVFPLAPSSKSTSGGTAALGCLVKDYFPEPVTVSWNSGALTSGVHTFPAVLQSSGLYSLSSVVTVPSSSLGTQTYICNVNHKPSNTKVDKRVEPKSCDKTHTCPPCPAPEAAGGPSVFLFPPKPKDTLYITREPEVTCVVVDVSHEDPEVKFNWYVDGVEVHNAKTKPREEQYNSTYRVVSVLTVLHQDWLNGKEYKCKVSNKALPAPIEKTISKAKGQPREPQVYTLPPSREEMTKNQVSLTCLVKGFYPSDIAVEWESNGQPENNYKTTPPVLDSDGSFFLYSKLTVDKSRWQQGNVFSCSVMHEALHNHYTQKSLSLSPGK
chain 2: DIQMTQSPSSLSASVGDRVTITCKASRDVAIAVAWYQQKPGKVPKLLIYWASTRHTGVPSRFSGSGSRTDFTLTISSLQPEDVADYFCHQYSSYPFTFGSGTKLEIKGGGSGGGGQVQLVESGGGVVQPGRSLRLSCAASGFIFSSYAMHWVRQAPGNGLEWVAFMSYDGSNKKYADSVKGRFTISRDNSKNTLYLQMNSLRAEDTAVYYCARDRGIAAGGNYYYYGMDVWGQGTTVTVSSLGGGSGRTVAAPSVFIFPPSDEQLKSGTASVVCLLNNFYPREAKVQWKVDNALQSGNSQESVTEQDSKDSTYSLSSTLTLSKADYEKHKVYACEVTHQGLSSPVTKSFNRGEC

EC50 (membrane bound TNF-alpha [3]): 0.31 nM | HeLa IL8 Cyno-TNF IC50 (cynomolgus TNF-alpha): 0.28 nM | HeLa IL8 Cyno-TNF IC90 (cynomolgus TNF-alpha): 1.2 nM | EC50 (membrane bound TNF-alpha [4]): 0.23 nM
B2: Control antibody 2 (TNFa monoclonal antibody) (antibody, V domains shown)
VH: QVQLVESGGGVVQPGRSLRLSCAASGFIFSSYAMHWVRQAPGNGLEWVAFMSYDGSNKKYADSVKGRFTISRDNSKNTLYLQMNSLRAEDTAVYYCARDRGIAAGGNYYYYGMDVWGQGTTVTVSS
VL: EIVLTQSPATLSLSPGERATLSCRASQSVYSYLAWYQQKPGQAPRLLIYDASNRATGIPARFSGSGSGTDFTLTISSLEPEDFAVYYCQQRSNWPPFTFGPGTKVDIK
notes: Monoclonal antibody

Dual Phospho DB-pSTAT3 IC50 (recombinant human IL23 [5]): 89 pM | Dual Phospho DB-pSTAT3 IC90 (recombinant human IL23 [5]): 230 pM | GEOMEAN IC50, IL-23-dependent STAT3 activation (luciferase) (recombinant human IL23 [1]): 0.0931 nM | GEOMEAN IC90, IL-23-dependent STAT3 activation (luciferase) (recombinant human IL23 [1]): 0.191 nM | hIL23 pSTAT3 DB assay IC50 (recombinant human IL23 [6]): 160 pM | hIL23 pSTAT3 DB assay IC90 (recombinant human IL23 [6]): 310 pM | huIL23 MSA IC50 (recombinant human IL23 [7]): 0.053 nM | huIL23 MSA IC90 (recombinant human IL23 [7]): 0.35 nM | CynoIL23 MSA IC50 [8]: 0.017 nM | CynoIL23 MSA IC90 [8]: 0.24 nM | IC50, IL-23-dependent STAT3 activation (DB-STAT3Luc10 luciferase) (recombinant human IL23 [2]): 0.0965 nM and 0.104 nM and 0.0803 nM | IL23A pSTAT3 (MG) IC50 (recombinant human IL23 [9]): 35 pM | IL23A pSTAT3 (MG) IC90 (recombinant human IL23 [9]): 140 pM
B3: Control Antibody 3 (IL23 monoclonal antibody) (antibody, V domains shown)
VH: QVQLVQSGAEVKKPGSSVKVSCKASGYTFTDQTIHWMRQAPGQGLEWIGYIYPRDDSPKYNENFKGKVTITADKSTSTAYMELSSLRSEDTAVYYCAIPDRSGYAWFIYWGQGTLVTVSS
VL: DIQMTQSPSSLSASVGDRVTITCKASRDVAIAVAWYQQKPGKVPKLLIYWASTRHTGVPSRFSGSGSRTDFTLTISSLQPEDVADYFCHQYSSYPFTFGSGTKLEIK
